We go through 4 molecules from patent US20240059799A1 (Pfizer, published 2024).

One may read the IC50 as the concentration at which inhibition is half-maximal. As usually defined, the EC50 is the midpoint of the concentration-response curve.

Read-outs that look alike come from different tables or passages of the source.

Test [1] concerns the target T1, recombinant human TL1A (human, UniProt O95150 71-251).
T1 chain: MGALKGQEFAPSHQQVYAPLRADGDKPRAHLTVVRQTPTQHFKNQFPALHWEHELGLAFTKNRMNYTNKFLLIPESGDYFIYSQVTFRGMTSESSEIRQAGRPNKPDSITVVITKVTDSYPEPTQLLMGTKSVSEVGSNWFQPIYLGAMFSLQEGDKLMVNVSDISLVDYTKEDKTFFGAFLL
Put plainly: cell-based or functional assay.

Test [2] concerns the target T1, recombinant human TL1A. Put plainly: competition ELISA, coated TL1A, competitor bio-TL1A-0002. The procedure:
(§1) For this competition ELISA assay procedure, 96-well high binding plates (Corning, product number 3590) were coated with 1 μg/mL recombinant TL1A in 100 μL/well in Phospate Buffered Saline (PBS) overnight at 4° C. Plates were then blocked in PBS+0.02% casein solution and washed with PBS+0.05% Tween-20 following standard ELISA protocol. […] Plates were washed with PBS+0.05% Tween-20 following standard ELISA protocol, and Streptavidin-HRP (Southern Biotech, product number 7100-05) diluted to 1:10,000 in assay buffer was added to plates and incubated for 25-30 minutes at room temperature. Next, the plates were washed with PBS+0.05% Tween-20 following standard ELISA protocol, and then TMB substrate (BioFX Laboratories, catalog number TMBW-0100-01) was added to plates. Reactions were stopped after approximately 5 minutes by adding 0.18 M ortho-phosphoric acid to each well and absorbance was read at 450 nm.
In general terms: An ELISA detects its analyte on a solid surface through an enzyme-linked reagent.

In test [3] the target is T2, full-length human TL1A on CHO-K1 cells (human, UniProt O95150 1-251).
T2 construct: whole, on cells; also called cells over-expressing human TL1A
T2 sequence (looked up): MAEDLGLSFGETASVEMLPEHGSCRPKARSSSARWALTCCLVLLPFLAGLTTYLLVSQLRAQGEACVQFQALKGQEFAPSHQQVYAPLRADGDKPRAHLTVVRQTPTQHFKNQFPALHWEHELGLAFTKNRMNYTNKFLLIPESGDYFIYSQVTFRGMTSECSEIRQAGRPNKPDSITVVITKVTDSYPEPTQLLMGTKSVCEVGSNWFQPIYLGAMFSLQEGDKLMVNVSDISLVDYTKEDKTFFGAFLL
The test can be described thus: flow cytometry on CHO-K1 cells stably expressing full-length human TL1A, PE anti-human IgG, median fluorescent intensity. Here is the method: A cell binding assay was performed to examine if the panel of [xTL1A] bivalent antibody variants could bind to human TL1A over-expressed on the cell surface. […] [xTL1A] bivalent antibody variants were incubated with cells on ice for 30-60 minutes at a concentration of either 1 μg/mL or 20 μg/mL. Cells were pelleted by centrifugation at 1500 RPM for 5 minutes at 4° C. and supernatant was discarded by aspiration. The cells were washed three times with DPBS with 4% FBS buffer as described. Cells were resuspended in 100 μL of PE-anti-human IgG (Life technologies Catalog number H10104) diluted 1:500 in DPBS with 4% FBS buffer and incubated on ice for 15 minutes. Cells were washed three times as described and resuspended in 200 μL of DPBS with 4% FBS buffer, then run on a flow cytometry instrument.

The target in test [4] is T1, recombinant human TL1A. The test can be described thus: competition ELISA on plate-coated recombinant human TL1A, competitor biotinylated TL1A-0260 (bio-TL1A-0260), streptavidin-HRP, OD450. The procedure:
as §1, with “Laboratories Catalog” for “Laboratories, catalog”

The target of test [5] is T1, recombinant human TL1A. The test is described as above. Here is the method: as §1, with “Laboratories Catalog” for “Laboratories, catalog”
Test [6] deals with T1, recombinant human TL1A. Described as above. Here is the method:
as §1, with “Laboratories Catalog” for “Laboratories, catalog”

Test [7] concerns the target T1, recombinant human TL1A. Described as above. Here is the method: as §1, with “Laboratories Catalog” for “Laboratories, catalog”
The target of test [8] is T3, recombinant human TL1A (human, UniProt O95150 71-251).
T3 construct: homotrimer; biotinylated for SPR capture; the ELISA paragraphs say only 'recombinant TL1A'; also called TNFSF15
T3 chain: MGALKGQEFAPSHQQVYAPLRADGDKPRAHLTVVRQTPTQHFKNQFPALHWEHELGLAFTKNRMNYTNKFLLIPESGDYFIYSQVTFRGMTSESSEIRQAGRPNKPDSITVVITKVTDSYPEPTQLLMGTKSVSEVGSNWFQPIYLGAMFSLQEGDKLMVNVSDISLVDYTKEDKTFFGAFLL
Put plainly: competition ELISA vs bio-TL1A-0002.

The target of test [9] is T3, recombinant human TL1A. The test can be described thus: competition ELISA vs bio-TL1A-0002. The procedure: as §1
Test [10] concerns the target T3, recombinant human TL1A. Put plainly: ELISA, biotinylated antibody on coated recombinant TL1A.
Test [11] has as its target T3, recombinant human TL1A. Put plainly: cell-based or functional assay.
For test [12], the target named is T4, bovine serum albumin (bovine, UniProt P02769 25-607).
T4 construct: also called BSA
T4 sequence (P02769 25-607 limits assumed): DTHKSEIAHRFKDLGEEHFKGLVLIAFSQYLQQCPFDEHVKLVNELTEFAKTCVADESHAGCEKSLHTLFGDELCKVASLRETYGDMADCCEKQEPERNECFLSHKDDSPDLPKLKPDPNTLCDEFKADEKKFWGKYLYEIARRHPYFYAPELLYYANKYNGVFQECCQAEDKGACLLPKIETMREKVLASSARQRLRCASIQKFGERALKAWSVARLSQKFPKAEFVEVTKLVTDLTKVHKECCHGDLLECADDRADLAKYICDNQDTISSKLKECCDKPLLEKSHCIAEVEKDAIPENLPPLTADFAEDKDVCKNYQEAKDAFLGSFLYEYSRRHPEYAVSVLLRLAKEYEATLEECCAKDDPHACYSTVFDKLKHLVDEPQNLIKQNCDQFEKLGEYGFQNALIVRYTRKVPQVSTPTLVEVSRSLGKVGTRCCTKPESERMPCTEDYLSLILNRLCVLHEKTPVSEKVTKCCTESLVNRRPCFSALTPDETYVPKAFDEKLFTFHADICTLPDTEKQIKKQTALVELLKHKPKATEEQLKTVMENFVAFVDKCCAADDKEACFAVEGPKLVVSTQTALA
Put plainly: direct binding ELISA on coated BSA. Here is the method: (§2) For the direct binding ELISA method to HSA or BSA, 96-well high binding plates (Corning, product number 3590) were coated with 1 μg/mL recombinant HSA or BSA in 100 μL/well in PBS overnight at 4° C. Plates were then blocked in PBS+0.02% casein solution and washed with PBS+0.05% Tween-20 following standard ELISA protocol. […] Plates were washed with PBS+0.05% Tween-20 following standard ELISA protocol, and goat anti-human IgG-Fc HRP conjugated secondary antibody (Pierce, #31413) diluted to 1:10,000 in assay buffer was added to plates and incubated for 1 hour at room temperature. Next, the plates were washed with PBS+0.05% Tween-20 following standard ELISA protocol, and then TMB substrate (BioFX Laboratories, catalog number TMBW-0100-01) was added to plates.
(§3) Reactions were stopped after approximately 5 minutes by adding 0.18 M ortho-phosphoric acid to each well and absorbance was read at 450 nm. […] For this method, samples diluted to 0.3 mg/mL were dispensed into the sample tray of a MicroCal VP-Capillary DSC with Autosampler (Malvern Instruments, Inc.), equilibrated for 5 minutes at 10° C. and then scanned up to 110° C. at a rate of 100° C. per/hour. A filtering period of 16 seconds was selected. Raw data was baseline corrected and the protein concentration was normalized. Origin Software 7.0 (Origin Lab Corporation, Northampton, MA) was used to fit the data to an MN2-State Model with an appropriate number of transitions.

The target in test [13] is T5, human serum albumin (human, UniProt P02768 25-609).
T5 construct: also called HSA
The test can be described thus: direct binding ELISA on coated HSA. The procedure:
as §2, §3

Test [14] concerns the target T6, recombinant cynomolgus monkey TL1A (cynomolgus monkey, UniProt O95150 72-251 (human entry)).
T6 construct: biotinylated for SPR capture; also called cyno TL1A
T6 chain: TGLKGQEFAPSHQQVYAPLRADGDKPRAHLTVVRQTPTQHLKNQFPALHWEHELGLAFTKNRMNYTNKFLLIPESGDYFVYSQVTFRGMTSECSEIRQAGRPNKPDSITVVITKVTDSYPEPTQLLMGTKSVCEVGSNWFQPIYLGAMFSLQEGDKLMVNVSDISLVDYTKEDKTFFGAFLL
The test can be described thus: SPR, antibody injected over captured biotinylated TL1A, 37° C. Here is the method: (§4) For these analyses, kinetic assays were conducted at 37° C. using a collection rate of 10 Hz on a Biacore™ T200 instrument (GE Healthcare). […] The association phase was 90 seconds, and the dissociation phases were 1600 seconds over human, cynomolgus monkey and rabbit TL1A and 180 seconds for mouse and rat TL1A.
(§5) In order to determine binding to TL1A, kinetic assays were conducted at 37° C. using a collection rate of 10 Hz on a Biacore™ T200 instrument (GE Healthcare).
On the technique in general: SPR reads the build-up and loss of mass on a sensor chip optically.

For test [15], the target named is T7, recombinant mouse TL1A (mouse, UniProt Q5UBV8 75-252).
T7 construct: biotinylated for SPR capture
T7 chain: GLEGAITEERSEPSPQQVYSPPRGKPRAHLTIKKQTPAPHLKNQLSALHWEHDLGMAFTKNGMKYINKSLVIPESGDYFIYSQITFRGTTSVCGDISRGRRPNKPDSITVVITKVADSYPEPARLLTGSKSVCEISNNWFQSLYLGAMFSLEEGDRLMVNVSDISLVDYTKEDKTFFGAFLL
Described as above. The procedure: as §4, §5

B1: TL1A-0260 (antibody, human IgG1, kappa, V domains shown)
VH: QVQLVQSGAEVKKPGASVKVSCKASGYDYTYYGISWVRQAPGQGLEWMGWISTYNTGTHYAPSLQGRVTMTTDTSTSTAYMELRSLRSDDTAVYYCARESYYGSGAFRGGMDVWGQGTTVTVSS
VL: DIQMTQSPSSLSASVGDRVTITCRASQSVSSYLAWYQQKPGKAPKLLIYDASNRATGVPSRFSGSGSGTDFTLTISSLQPEDFATYYCQQRSNWPWTFGQGTKVEIKR
notes: human IgG1 effector-function-minimized/kappa; also called bio-TL1A-0260 (biotinylated reporter)
Turning to B1, in test [1], the “TF-1 NF-κB reporter cell bioassay IC50” value turned out to be 29.2 nM; the “TF-1 NF-κB reporter cell bioassay, Bioactivity relative to TL1A-0002” value came out at 0.8 fold; the “Whole blood IFNγ assay IC50” value is 0.755 nM; the “Whole blood IFNγ assay, Bioactivity relative to TL1A-0002” value was found to be 0.9 fold. Further, in [2], the “Bioactivity relative to TL1A-0002” value was found to be 1.3 fold and the half-inhibitory concentration (IC50) was determined as 6.8 nM. Further, in [3], the binding result is reported as “binds”. In addition, the “IC50 (read off the curve)” value in test [4] is ~4 nM. The “IC50 (read off the curve)” value in test [5] was ~7 nM. For the same molecule, the “IC50 (read off the curve)” value in [6] is ~4 nM. In [7], the “IC50 (read off the curve)” value is ~4 nM.

B2: TL1A-0002 (antibody, human IgG1, kappa, V domains shown)
VH: QVQLVQSGAEVKKPGASVKVSCKASGYDFTYYGISWVRQAPGQGLEWMGWISTYNGNTHYARMLQGRVTMTTDTSTRTAYMELRSLRSDDTAVYYCARENYYGSGAYRGGMDVWGQGTTVTVSS
VL: EIVLTQSPATLSLSPGERATLSCRASQSVSSYLAWYQQKPGQAPRLLIYDASNRATGIPARFSGSGSGTDFTLTISSLEPEDFAVYYCQQRSNWPWTFGQGTKVEIKR
notes: human IgG1/kappa, effector function minimized; also called bioTL1A-0002 (biotinylated)
Regarding B2, in test [8], the “Bioactivity relative to TL1A-0002” value is 1 fold and the concentration for half-maximal inhibition (IC50) was 4.5 nM. In addition, in [9], the “Bioactivity relative to TL1A-0002” value came to 1 fold and the IC50 came to 4.5 nM. In test [10], the EC50 was 5 ng/mL.

B3: [xTL1A]-0341 (antibody, human IgG1, kappa, V domains shown)
VH: QVQLVQSGAEVKKPGASVKVSCKASGYTFTSYGISWVRQAPGQGLEWMGWISAYNGNTNYAQKLQGRVTMTTDTSTSTAYMELRSLRSDDTAVYYCARESSYGSEAFRAGMDVWGQGTTVTVSS
VL: DIQMTQSPSSLSASVGDRVTITCRASQSVSSYLAWYQQKPGKAPKLLIYDASNRATGVPSRFSGSGSGTDFTLTISSLQPEDFATYYCQQRSNWPWTFGQGTKVEIKR
notes: bivalent disabled antibody, IgG1 effector-function-minimized/kappa
As to B3, the binding result in [3] is listed as “no binding (tested: 20 ug/mL)”; in [5] it was “no binding (tested: 300 nM)”.

B4: TL1A-0372 monovalent bispecific antibody (bispecific antibody, human IgG1, kappa)
heavy 1: QVQLVQSGAEVKKPGASVKVSCKASGYDYTYYGISWVRQAPGQGLEWMGWISTYNTGTHYAPSLQGRVTMTTDTSTSTAYMELRSLRSDDTAVYYCARESYYGSGAFRGGMDVWGQGTTVTVSSASTKGPSVFPLAPSSKSTSGGTAALGCLVKDYFPEPVTVSWNSGALTSGVHTFPAVLQSSGLYSLSSVVTVPSSSLGTQTYICNVNHKPSNTKVDKKVEPKSCDKTHTCPPCPAPEAAGAPSVFLFPPKPKDTLMISRTPEVTCVVVDVSHEDPEVKFNWYVDGVEVHNAKTKPREEQYNSTYRVVSVLTVLHQDWLNGKEYKCKVSNKALPAPIEKTISKAKGQPREPQVCTLPPSREEMTKNQVSLWCLVKGFYPSDIAVEWESNGQPENNYKTTPPVLDSDGSFFLYSKLTVDKSRWQQGNVFSCSVLHEALHSHYTQKSLSLSPGK
heavy 2: not shown
light: not shown
notes: KiH, LS
In the case of B4, the “NF-κB assay in TF-1 reporter cells, neutralization relative to TL1A-0002” value in test [11] is ≤ 2 fold. For the same molecule, the binding result in test [12] and in test [13] was “no binding (tested: 0.5-1000 nM)” each time. In addition, the entries for the “fold higher affinity to human TL1A than to this TL1A” value in [14] and in [15] were ~2 fold and ~546 fold, respectively.
